Data set [1] relates to HeLa Kyoto. Briefly: melting temperature (median over replicates), in situ; higher = more thermally stable.
For data set [2], the system named is HeLa Kyoto. The experiment in a line: thermal stability score vs G1/S (z-score of summed log2 fold changes over temperatures); higher = more thermally stable than in G1/S.
Data set [3] concerns HeLa Kyoto. Briefly: solubility change mitosis vs G1/S (difference of NP-40 vs SDS log2 ratios) (log2 ratio difference); higher = more soluble in mitosis.
Data set [4] concerns HeLa Kyoto. Briefly: solubility in G1/S (NP-40 vs SDS abundance) (log2 ratio); higher = more soluble. Particulars: cell cycle stage: G1/S.
Setting [5] is: cell cycle stage: early G1 (4.5 h after nocodazole release).
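Wherever melting temperature (median over replicates), in situ is given: HeLa Kyoto cells synchronized by double thymidine or nocodazole block, proteins quantified by TMT10plex mass spectrometry, three independent biological replicates.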
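Wherever solubility change mitosis vs G1/S (difference of NP-40 vs SDS log2 ratios) is given: synchronized HeLa Kyoto cells (double thymidine block for G1/S, nocodazole release for mitosis), protein amounts in NP-40 versus SDS lysates quantified by mass spectrometry, three biological replicates.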
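Wherever solubility in G1/S (NP-40 vs SDS abundance) is given: HeLa Kyoto cells arrested at G1/S by double thymidine block, proteins quantified by TMT10plex mass spectrometry in mild NP-40 versus SDS extracts, three biological replicates.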
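Wherever thermal stability score vs G1/S (z-score of summed log2 fold changes over temperatures) is given: synchronized HeLa Kyoto cells, proteins quantified by TMT10plex mass spectrometry, three biological replicates, mitosis taken 0.5 h after nocodazole release, G1/S directly after double thymidine block.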

Take “MPGPAAGSRARVYAEVNSLRSREYWDYEAHVPSWGNQDDYQLVRKLGRGKYSEVFEAINITNNERVVVKILKPVKKKKIKREVKILENLRGGTNIIKLIDTVKDPVSKTPALVFEYINNTDFKQLYQILTDFDIRFYMYELLKALDYCHSKGIMHRDVKPHNVMIDHQQKKLRLIDWGLAEFYHPAQEYNVRVASRYFKGPELLVDYQMYDYSLDMWSLGCMLASMIFRREPFFHGQDNYDQLVRIAKVLGTEELYGYLKKYHIDLDPHFNDILGQHSRKRWENFIHSENRHLVSPEALDLLDKLLRYDHQQRLTAKEAMEHPYFYPVVKEQSQPCADNAVLSSGLTAAR [CSNK2A2]”: the melting temperature with HeLa Kyoto [1] (cell cycle stage: G1/S) stood at 50.7 °C; with HeLa Kyoto [1] (cell cycle stage: mitosis) it was 50.3 °C. For the same sequence, the thermal stability score with HeLa Kyoto [2] (setting [5]) came to 1.94; in the data set on HeLa Kyoto [2] (cell cycle stage: mitosis), 2.34. In the data set on HeLa Kyoto [3], the “solubility change mitosis (log2)” value worked out at 0.0267. Further, in the data set on HeLa Kyoto [4], the “solubility in G1/S (log2)” value is -0.244.
Turning to “MTDDKDVLRDVWFGRIPTCFTLYQDEITEREAEPYYLLLPRVSYLTLVTDKVKKHFQKVMRQEDISEIWFEYEGTPLKWHYPIGLLFDLLASSSALPWNITVHFKSFPEKDLLHCPSKDAIEAHFMSCMKEADALKHKSQVINEMQKKDHKQLWMGLQNDRFDQFWAINRKLMEYPAEENGFRYIPFRIYQTTTERPFIQKLFRPVAADGQLHTLGDLLKEVCPSAIDPEDGEKKNQVMIHGIEPMLETPLQWLSEHLSYPDNFLHISIIPQPTD [ATG5]”, the melting temperature in the data set on HeLa Kyoto [1] (cell cycle stage: G1/S) amounted to 54.2 °C; in the data set on HeLa Kyoto [1] (cell cycle stage: mitosis), 53.6 °C. Moreover, the thermal stability score in the data set with HeLa Kyoto [2] (setting [5]) is -0.587; in the data set on HeLa Kyoto [2] (cell cycle stage: mitosis), 0.0242. Also, the “solubility change mitosis (log2)” value in the data set on HeLa Kyoto [3] worked out at 0.0407. In addition, the “solubility in G1/S (log2)” value in the data set on HeLa Kyoto [4] stood at 0.406.
On to “MVLTLGESWPVLVGRRFLSLSAADGSDGSHDSWDVERVAEWPWLSGTIRAVSHTDVTKKDLKVCVEFDGESWRKRRWIEVYSLLRRAFLVEHNLVLAERKSPEISERIVQWPAITYKPLLDKAGLGSITSVRFLGDQQRVFLSKDLLKPIQDVNSLRLSLTDNQIVSKEFQALIVKHLDESHLLKGDKNLVGSEVKIYSLDPSTQWFSATVINGNPASKTLQVNCEEIPALKIVDPSLIHVEVVHDNLVTCGNSARIGAVKRKSSENNGTLVSKQAKSCSEASPSMCPVQSVPTTVFKEILLGCTAATPPSKDPRQQSTPQAANSPPNLGAKIPQGCHKQSLPEEISSCLNTKSEALRTKPDVCKAGLLSKSSQIGTGDLKILTEPKGSCTQPKTNTDQENRLESVPQALTGLPKECLPTKASSKAELEIANPPELQKHLEHAPSPSDVSNAPEVKAGVNSDSPNNCSGKKVEPSALACRSQNLKESSVKVDNESCCSRSNNKIQNAPSRKSVLTDPAKLKKLQQSGEAFVQDDSCVNIVAQLPKCRECRLDSLRKDKEQQKDSPVFCRFFHFRRLQFNKHGVLRVEGFLTPNKYDNEAIGLWLPLTKNVVGIDLDTAKYILANIGDHFCQMVISEKEAMSTIEPHRQVAWKRAVKGVREMCDVCDTTIFNLHWVCPRCGFGVCVDCYRMKRKNCQQGAAYKTFSWLKCVKSQIHEPENLMPTQIIPGKALYDVGDIVHSVRAKWGIKANCPCSNRQFKLFSKPASKEDLKQTSLAGEKPTLGAVLQQNPSVLEPAAVGGEAASKPAGSMKPACPASTSPLNWLADLTSGNVNKENKEKQPTMPILKNEIKCLPPLPPLSKSSTVLHTFNSTILTPVSNNNSGFLRNLLNSSTGKTENGLKNTPKILDDIFASLVQNKTTSDLSKRPQGLTIKPSILGFDTPHYWLCDNRLLCLQDPNNKSNWNVFRECWKQGQPVMVSGVHHKLNSELWKPESFRKEFGEQEVDLVNCRTNEIITGATVGDFWDGFEDVPNRLKNEKEPMVLKLKDWPPGEDFRDMMPSRFDDLMANIPLPEYTRRDGKLNLASRLPNYFVRPDLGPKMYNAYGLITPEDRKYGTTNLHLDVSDAANVMVYVGIPKGQCEQEEEVLKTIQDGDSDELTIKRFIEGKEKPGALWHIYAAKDTEKIREFLKKVSEEQGQENPADHDPIHDQSWYLDRSLRKRLHQEYGVQGWAIVQFLGDVVFIPAGAPHQVHNLYSCIKVAEDFVSPEHVKHCFWLTQEFRYLSQTHTNHEDKLQVKNVIYHAVKDAVAMLKASESSFGKP [KDM3A]”, for which the melting temperature in the data set with HeLa Kyoto [1] (cell cycle stage: G1/S) turned out to be 48.6 °C; in the data set with HeLa Kyoto [1] (cell cycle stage: mitosis), 50.4 °C. Also, the thermal stability score in the data set with HeLa Kyoto [2] (setting [5]) was -0.474; with HeLa Kyoto [2] (cell cycle stage: mitosis), 0.304. The “solubility change mitosis (log2)” value in the data set with HeLa Kyoto [3] was -0.158. In the data set on HeLa Kyoto [4], the “solubility in G1/S (log2)” value amounted to 0.0198.
Consider “MAASLRLLGAASGLRYWSRRLRPAAGSFAAVCSRSVASKTPVGFIGLGNMGNPMAKNLMKHGYPLIIYDVFPDACKEFQDAGEQVVSSPADVAEKADRIITMLPTSINAIEAYSGANGILKKVKKGSLLIDSSTIDPAVSKELAKEVEKMGAVFMDAPVSGGVGAARSGNLTFMVGGVEDEFAAAQELLGCMGSNVVYCGAVGTGQAAKICNNMLLAISMIGTAEAMNLGIRLGLDPKLLAKILNMSSGRCWSSDTYNPVPGVMDGVPSANNYQGGFGTTLMAKDLGLAQDSATSTKSPILLGSLAHQIYRMMCAKGYSKKDFSSVFQFLREEETF [HIBADH]”, for which the figures for the melting temperature in the data set with HeLa Kyoto [1] (cell cycle stage: G1/S) and with HeLa Kyoto [1] (cell cycle stage: mitosis) were 55.4 °C and 56.9 °C, respectively. In addition, the thermal stability score is 0.844 with HeLa Kyoto [2] (setting [5]) and -0.199 in the data set on HeLa Kyoto [2] (cell cycle stage: mitosis). Further, the “solubility change mitosis (log2)” value in the data set on HeLa Kyoto [3] is -0.0734. Moreover, the “solubility in G1/S (log2)” value in the data set with HeLa Kyoto [4] was 0.469.
Take “MAAPALGLVCGRCPELGLVLLLLLLSLLCGAAGSQEAGTGAGAGSLAGSCGCGTPQRPGAHGSSAAAHRYSREANAPGPVPGERQLAHSKMVPIPAGVFTMGTDDPQIKQDGEAPARRVTIDAFYMDAYEVSNTEFEKFVNSTGYLTEAEKFGDSFVFEGMLSEQVKTNIQQAVAAAPWWLPVKGANWRHPEGPDSTILHRPDHPVLHVSWNDAVAYCTWAGKRLPTEAEWEYSCRGGLHNRLFPWGNKLQPKGQHYANIWQGEFPVTNTGEDGFQGTAPVDAFPPNGYGLYNIVGNAWEWTSDWWTVHHSVEETLNPKGPPSGKDRVKKGGSYMCHRSYCYRYRCAARSQNTPDSSASNLGFRCAADRLPTMD [SUMF1]”: the melting temperature in the data set on HeLa Kyoto [1] (cell cycle stage: G1/S) was 53.7 °C; in the data set with HeLa Kyoto [1] (cell cycle stage: mitosis) it was 55.1 °C. Further, the thermal stability score is -1.37 in the data set on HeLa Kyoto [2] (setting [5]) and 2.23 in the data set on HeLa Kyoto [2] (cell cycle stage: mitosis). Besides, in the data set on HeLa Kyoto [3], the “solubility change mitosis (log2)” value was 0.0674. For the same sequence, the “solubility in G1/S (log2)” value in the data set with HeLa Kyoto [4] was 0.277.
